# Like-named read-outs stand apart in the source and are kept apart here.
# Tests used:
# [1] = biological target: the molecule itself; test: mass photometry
# [2] = biological target: the molecule itself; test: mass photometry; remark: listed apart in the source
Protein,stoichiometry N [1],stoichiometry N [2]
"SPD-5(541-677) (domain or fragment, C. elegans, UniProt P91349 541-677, looked up) SQSHIPILHDMQQILDSSAMFLEGQHDVAVNVEQMQEKMSQIREALARLFERLKSSAALFEEILERMGSSDPNADKIKKMKLAFETSINDKLNVSAILEAAEKDLHNMSLNFSILEKSIVSQAAEASRRFTIAPDAE",2,
"SPD-5(541-677) phosphorylated by PLK-1(CA) (domain or fragment, C. elegans, UniProt P91349 541-677, looked up, phosphorylated by PLK-1(CA) (verified by gel migration shift and MS); sites not printed for this fragment) SQSHIPILHDMQQILDSSAMFLEGQHDVAVNVEQMQEKMSQIREALARLFERLKSSAALFEEILERMGSSDPNADKIKKMKLAFETSINDKLNVSAILEAAEKDLHNMSLNFSILEKSIVSQAAEASRRFTIAPDAE",,2
"SPD-5(541-677) R592K (domain or fragment, C. elegans, UniProt P91349 541-677, looked up) SQSHIPILHDMQQILDSSAMFLEGQHDVAVNVEQMQEKMSQIREALARLFEKLKSSAALFEEILERMGSSDPNADKIKKMKLAFETSINDKLNVSAILEAAEKDLHNMSLNFSILEKSIVSQAAEASRRFTIAPDAE",2,
